This data set concerns the molecule itself. Kind of data set: dynamic light scattering.

Where a chain is given by its changes, count along the chain named.

B1: STIM1 23-213 (luminal domain of human stromal interaction molecule-1), wild type, unmodified (1 mM DTT) (domain or fragment, UniProt Q13586-1 23-213, looked up)
chain: LSHSHSEKATGTSSGANSEESTAAEFCRIDKPLCHSEDEKLSFEAVRNIHKLMDDDANGDVDVEESDEFLREDLNYHDPTVKHSTFHGEDKLISVEDLWKAWKSSEVYNWTVDEVVQWLITYVELPQYEETFRKLQLSGHAMPRLAVTNTTMTGTVLKMTDRSHRQKLQLKALDTVLFGPPLLTRHNHLKD
On to B1, for which the binding result is “binds”.

B2: Cys49Ser/Cys56Ser double mutant STIM1 23-213 (domain or fragment, human, UniProt Q13586-1 23-213, looked up)
chain: B1 chain with C27S, C34S
Take B2: the binding result is recorded as “binds”.

The record behind these values is doi:10.1101/304022 (bioRxiv, 2018).
